Data reported in the nanobody polyreactivity screen of Harvey et al. (2022).

Test: yeast display, Sf9 membrane polyspecificity reagent, FACS + sequencing; frameworks hold sequencing errors
In short: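 Galactose induction of a Saccharomyces cerevisiae BJ5465 synthetic nanobody display library ran 36–48 hours. The cells were then stained for 1 hour at 4 °C with 10% biotinylated, detergent-solubilized Sf9 membrane reagent, pulled down on streptavidin microbeads and FACS-sorted into low and high (top ~1%) gates on expression and reagent-binding fluorescence. Labels for polyreactivity follow the gate of origin.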
For “QVQLVESGGGLVQAGGSLRLSCAASGRIFRSNAMGWYRQAPGKERELVAAINYRGDRTYYADSVKGRFTISRDNAKNTVYLQMYSLKPEDTAVYYCNARRYSIPVSAGGYDSWGQGTQVTVSS”, the “polyreactivity (PSR sort gate)” value was “high polyreactivity”. In the case of “QVQLVESGGGLVQAGGSLRLSCAASGRIFRSNAMGWYRQAPGKERELVATISRRGGSTYYADSVKGRFTISRDNAKNTVYLQMNSLKPEDTAVYFCNTRNSGSLDLYNTMDYWGQGTQVTVSS”, the “polyreactivity (PSR sort gate)” value is reported as “high polyreactivity”. With “QVQLVESGGGLVQAGGSLRLSCAASGRIFRSYAMGWYRQAPGKERELVAAITKSGGGTYYADTVKGRFTISRDNAKNTVYLQMNSMKPEDTAVYYCGARGHCGYYYWGQGTQVTVSS” the “polyreactivity (PSR sort gate)” value was “high polyreactivity”. With “QVQLVESGGGLVQAGGSLRLSCAASGRIFRTNAQGWYRQAPGKERELVAAITRGGTTNYADSVKGRFTISRDNAKNTVYLQMNSLKPEDTAVYYCATRLSGWRYYLARYDYWGQGTQVTVSS” the “polyreactivity (PSR sort gate)” value was “low polyreactivity”. In the case of “QVQLVESGGGLVQAGGSLRLSCAASGRIFRTNTMGWYRQAPGKERELVAAITRGGSTYYADSVKGRFTISRDNAKNTVYLQMNSLKPEDTAVYYCAASRYYNSVHNGGDYWGQGTQVTVSS”, the “polyreactivity (PSR sort gate)” value is reported as “high polyreactivity”. With “QVQLVESGGGLVQAGGSLRLSCAASGRIFRVNAMGWYRQAPGKERELVAAISGRGGSTYYADSVKGRFTISRDNANNTVYLQMNSLKPEDTAVYYCAKKSFSYGYNSYDYWGQGTQVTVSS” the “polyreactivity (PSR sort gate)” value was “high polyreactivity”. For “QVQLVESGGGLVQAGGSLRLSCAASGRIFRVYAMGWYRPAPGKERELVAAITSGGTTYADSVKGRFTISRDNAKNTVYLQMYSLKPEDTAVYYCAARHAYPYRRGDFNYWGQGTQVTVSS”, the “polyreactivity (PSR sort gate)” value was “high polyreactivity”. With “QVQLVESGGGLVQAGGSLRLSCAASGRIFRVYAMGWYRQAPGKERELVAAISSRGGRTYYADSVKGRFTISRDNAKNTVYLQMNSLKPEDTAVYYCAADGRSSSRATSRYDYWGQGTQVTVSS” the “polyreactivity (PSR sort gate)” value was “high polyreactivity”. With “QVQLVESGGGLVQAGGSLRLSCAASGRIFRVYAMGWYRQAPGKERELVAAITRGGSTYYADSVKGRFTISRDNAKNTVYLQMNSLKPEDTAVYYCAARTWHRYDYWGQGTQVTVSS” the “polyreactivity (PSR sort gate)” value was “high polyreactivity”. For “QVQLVESGGGLVQAGGSLRLSCAASGRIFRVYAMGWYRQAPGKETELVAAISRTGGSTYYADSVKGRFTISRDNAKNTVYLQMNSLKPEDTAVYYCAALVNGNFPTVDYWGQGTQVTVSS”, the “polyreactivity (PSR sort gate)” value was “high polyreactivity”. With “QVQLVESGGGLVQAGGSLRLSCAASGRIFRVYTMGWYRQAPGKERELVAGITWDGGGTYYADSVKGRFTISRDNAKNTVYLQMNSLKPEDTAVYYCNAVVQGFYLAWLYTLDSWGQGTQVTVSS” the “polyreactivity (PSR sort gate)” value was “low polyreactivity”. In the case of “QVQLVESGGGLVQAGGSLRLSCAASGRIFRWNAMGWYRQAPGKEREFVAAISWNGGRTYYADSVMGRFTISRDNAKNTVYLQMNSLKPEDPAVYYCAATHSVPDLLSGDYWGQGTQVTVSS”, the “polyreactivity (PSR sort gate)” value is reported as “low polyreactivity”. In the case of “QVQLVESGGGLVQAGGSLRLSCAASGRIFRWNAMGWYRQAPGKERELVAAISASGGRTYYADSVKGRFTISRDNAKNTVYLQMISLKPEDTAVYYCAAGPVYYYVPIGYDYWGQGTQVTVSS”, the “polyreactivity (PSR sort gate)” value is reported as “high polyreactivity”. With “QVQLVESGGGLVQAGGSLRLSCAASGRIFRWSVRGWYRQAPGKERELVAAISYGSGSTYYADSVKGRFTISRDNAKNTVYLQMNSLKPEDTAVYYCAADSQAARYHAYDYWGQGTQVTVSS” the “polyreactivity (PSR sort gate)” value was “high polyreactivity”. For “QVQLVESGGGLVQAGGSLRLSCAASGRIFRWYAMGWYRQAPGKERELVASISRGGSTYYADSVKGRFTISRDNAKNTVYLQMNSLKPEDTAVYYCNVKYKYDRAYGEYDYWGQGTQVTVSS”, the “polyreactivity (PSR sort gate)” value was “high polyreactivity”. With “QVQLVESGGGLVQAGGSLRLSCAASGRIFRWYGMGWYRQAPGKERELVAAITSGGSTHYADSVKGRFTISRDNAKNTVYLQMNSLKPEDTAVYYCAADPYHLQTRFSGLAEFYYWGQGTQVTVSS” the “polyreactivity (PSR sort gate)” value was “low polyreactivity”. With “QVQLVESGGGLVQAGGSLRLSCAASGRIFRWYGMGWYRQAPRKERELFAAISGRGGSTYYADSVKGRFTISRDIAKNTVYLQMNSLKPEDSGVYYCKKDPYYIYRPGSGQGYAFNYWGQGTQVTVSS” the “polyreactivity (PSR sort gate)” value was “high polyreactivity”. In the case of “QVQLVESGGGLVQAGGSLRLSCAASGRIFRWYTMGWYRQAPGKEREFVAAITWSDTSTSYADSVKGRFTISRDNAKKTVYLQMNSLKPEDTAVYYCNAATRSSVTFGWYIEYDYWGQGTQVTVSS”, the “polyreactivity (PSR sort gate)” value is reported as “low polyreactivity”. In the case of “QVQLVESGGGLVQAGGSLRLSCAASGRIFRWYTMGWYRQAPGKEREFVDAITWSDTSTSYADSVKGRFTISRDNAKNTVYLQMNSLKPEDTAVYYCNAATRSSVTFGWYIEYDYWGQGTQVTVSS”, the “polyreactivity (PSR sort gate)” value is reported as “low polyreactivity”. In the case of “QVQLVESGGGLVQAGGSLRLSCAASGRIFRWYVMGWYRQAPGKERELVASISSGGITYYADSVKGRFTISRDNAKNTVYLQMNSLKPEDTAVYYCNARRQPYRTSGSEMGYWGQGTQVTVSS”, the “polyreactivity (PSR sort gate)” value is reported as “high polyreactivity”. In the case of “QVQLVESGGGLVQAGGSLRLSCAASGRIFRYNAMGWYRQAPGKERELVAAITGCGGSTYYADSVKGRFTISRDNAKNTVYLQMNSLKPEDTAVYYCNTYTYYSRMDYWGQGTQVTVSS”, the “polyreactivity (PSR sort gate)” value is reported as “high polyreactivity”. With “QVQLVESGGGLVQAGGSLRLSCAASGRIFRYNAMGWYRQAPGKERELVAAITQSGGNTYYADSVKGRFTISRDNAKNTVYLQMNSLKPEDTAVYYCAAATRQFAGQRYGYWGQGTQVTVSS” the “polyreactivity (PSR sort gate)” value was “high polyreactivity”. For “QVQLVESGGGLVQAGGSLRLSCAASGRIFRYNAMGWYRQAPGKERELVADINSGGITNYADSVKGRFTISRDNAKNTVYFQKNSLKPEDTAVYYCNTATNLSCGYDSWGQGTQVTVSS”, the “polyreactivity (PSR sort gate)” value was “low polyreactivity”. In the case of “QVQLVESGGGLVQAGGSLRLSCAASGRIFRYNAMGWYRQAPGKERELVASISSGTSTTYADSVKGRFTISRDYAKNTVYLQMNSLKPEDTAVYYCAAVPSYRGYRGGYSNLWYYYWGQGTQVTVSS”, the “polyreactivity (PSR sort gate)” value is reported as “high polyreactivity”. For “QVQLVESGGGLVQAGGSLRLSCAASGRIFRYNAMGWYRQAPGKERELVASITSGGSTKYADSVKGRFTISRDNAKNTVYLQMNSLKPEDTAVYYCAAQRATPWPKNDYWGQGTQVTVSS”, the “polyreactivity (PSR sort gate)” value was “high polyreactivity”. With “QVQLVESGGGLVQAGGSLRLSCAASGRIFRYNAMGWYRQAPGKERELVATISRGGGSTYYADSVKGRFTISRDNAKNTVYLQMNSLKPEDTAVYYCAAVGYYLVKFDYWGQGTQVTVSS” the “polyreactivity (PSR sort gate)” value was “high polyreactivity”. In the case of “QVQLVESGGGLVQAGGSLRLSCAASGRIFRYNTMGWYRQAPGKEREFVAAITQRGVNTYYADSVKGRFTISRDNAKNTVYLQLNSLKPEDTAVYYCNAKRYSYWIYRAYDYWGQGTQVTVSS”, the “polyreactivity (PSR sort gate)” value is reported as “low polyreactivity”. With “QVQLVESGGGLVQAGGSLRLSCAASGRIFRYNTMGWYRQAPGKERELVAAITYRGGSTYYADSVKGRFTISRDNAKNTVYLQMNSLKPEDTAVYYCAASPARYWYGGKEYDYWGQGTQVTVSS” the “polyreactivity (PSR sort gate)” value was “high polyreactivity”. In the case of “QVQLVESGGGLVQAGGSLRLSCAASGRIFRYYAMGWSRQAPGKERELVAAITSDGRTYYADSVKGRVTISRDNAKNTVYLQMNSLKPEDTAVYYCAADHHSYRYGGYYYWGQGTQVTVAS”, the “polyreactivity (PSR sort gate)” value is reported as “low polyreactivity”. In the case of “QVQLVESGGGLVQAGGSLRLSCAASGRIFRYYAMGWYIQAPGKERELVAAISGSGGSTYYADSVKGRFTISRDNAKNTVYLQMNSLKPEDTAVYYCNARYRIPSGEGDHWGQGTQVTVSS”, the “polyreactivity (PSR sort gate)” value is reported as “low polyreactivity”. For “QVQLVESGGGLVQAGGSLRLSCAASGRIFRYYAMGWYIQAPGKERELVAAITRGGSTNYADSVKGRFTISRDNAKNTVYLQMNSLKPEDTAVYYCAARRQGRSGNGSWGQGTQVTVSS”, the “polyreactivity (PSR sort gate)” value was “high polyreactivity”.
